Assay results reported in the supplement of paper PMC10567573.

B1: PCDHGA10 (parent)
chain: FGIEIEVTDINDNAPKFQAENLDV

Variants of: B1
Assay: protein stability index of a GFP-peptide fusion (GPS, HEK-293T) (PSI 1-6); higher = more stable
Settings: c terminus: a fixed tail appended
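Also: lentivirally expressed fusions sorted by FACS into six bins by GFP to DsRed ratio, PSI derived from sequencing read proportions per bin multiplied by bin number.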

Variant | protein stability index
FGIEIEVTDINDNAPDFQAENLDV | 3.46
FGIEIEVTDINDNAPAFQAENLDV | 2.53
FGIEIEVTDINDNAPLFQAENLDV | 2.31
FGIEIEVTDINDNAPCFQAENLDV | 2.45
FGIEIEVTDINDNAPHFQAENLDV | 2.76
FGIEIEVTDINDNAPSFQAENLDV | 2.52
FGIEIEVTDINDNAPGFQAENLDV | 3.56
FGIEIEVTDINDNAPPFQAENLDV | 3.31
FGIEIEVTDINDNAPYFQAENLDV | 2.18
FGIEIEVTDINDNAPRFQAENLDV | 3.02
FGIEIEVTDINDNAPMFQAENLDV | 3.07
FGIEIEVTDINDNAPIFQAENLDV | 2.48
FGIEIEVTDINDNAPTFQAENLDV | 2.91
FGIEIEVTDINDNAPEFQAENLDV | 3.88
FGIEIEVTDINDNAPWFQAENLDV | 1.72
FGIEIEVTDINDNAPQFQAENLDV | 3.35
FGIEIEVTDINDNAPFFQAENLDV | 2.21
FGIEIEVTDINDNAPVFQAENLDV | 2.64
FGIEIEVTDINDNAPNFQAENLDV | 2.94
FGIEIEVTDINDNAPKFQKENLDV | 3.37
FGIEIEVTDINDNAPKFQHENLDV | 3.18
FGIEIEVTDINDNAPKFQMENLDV | 2.53
FGIEIEVTDINDNAPKFQPENLDV | 2.6
FGIEIEVTDINDNAPKFQVENLDV | 2.37

Variant | protein stability index
FGIEIEVTDINDNAPKFQCENLDV | 2.59
FGIEIEVTDINDNAPKFQTENLDV | 2.84
FGIEIEVTDINDNAPKFQFENLDV | 2.42
FGIEIEVTDINDNAPKFQRENLDV | 3
FGIEIEVTDINDNAPKFQEENLDV | 3.83
FGIEIEVTDINDNAPKFQYENLDV | 1.95
FGIEIEVTDINDNAPKFQIENLDV | 2.26
FGIEIEVTDINDNAPKFQLENLDV | 2
FGIEIEVTDINDNAPKFQSENLDV | 2.62
FGIEIEVTDINDNAPKFQQENLDV | 3.32
FGIEIEVTDINDNAPKFQDENLDV | 3.56
FGIEIEVTDINDNAPKFQWENLDV | 1.59
FGIEIEVTDINDNAPKFQGENLDV | 3.51
FGIEIEVTDINDNAPKFQNENLDV | 2.82
FGIEIEVTDININAPKFQAENLDV | 1.84
FGIEIEVTDINSNAPKFQAENLDV | 2.25
FGIEIEVTDINNNAPKFQAENLDV | 2.15
FGIEIEVTDINGNAPKFQAENLDV | 2.58
FGIEIEVTDINFNAPKFQAENLDV | 1.94
FGIEIEVTDINCNAPKFQAENLDV | 1.8
FGIEIEVTDINLNAPKFQAENLDV | 1.49
FGIEIEVTDINANAPKFQAENLDV | 2.28
FGIEIEVTDINTNAPKFQAENLDV | 1.99
FGIEIEVTDINWNAPKFQAENLDV | 1.6

Variant | protein stability index
FGIEIEVTDINPNAPKFQAENLDV | 2.42
FGIEIEVTDINHNAPKFQAENLDV | 2.16
FGIEIEVTDINMNAPKFQAENLDV | 1.75
FGIEIEVTDINENAPKFQAENLDV | 3.13
FGIEIEVTDINKNAPKFQAENLDV | 2.98
FGIEIEVTDINYNAPKFQAENLDV | 1.56
FGIEIEVTDINRNAPKFQAENLDV | 2.48
FGIEIEVTDINQNAPKFQAENLDV | 2.71
FGIEIEVTDINVNAPKFQAENLDV | 2.05
FGIEIEVTDINDNACKFQAENLDV | 2.5
FGIEIEVTDINDNAWKFQAENLDV | 2.05
FGIEIEVTDINDNADKFQAENLDV | 3.62
FGIEIEVTDINDNARKFQAENLDV | 3.36
FGIEIEVTDINDNAMKFQAENLDV | 2.66
FGIEIEVTDINDNAKKFQAENLDV | 3.51
FGIEIEVTDINDNAGKFQAENLDV | 3.52
FGIEIEVTDINDNANKFQAENLDV | 3.6
FGIEIEVTDINDNALKFQAENLDV | 2.41
FGIEIEVTDINDNAEKFQAENLDV | 3.24
FGIEIEVTDINDNAHKFQAENLDV | 2.73
FGIEIEVTDINDNASKFQAENLDV | 3.14
FGIEIEVTDINDNAVKFQAENLDV | 2.55
FGIEIEVTDINDNAAKFQAENLDV | 3.37
FGIEIEVTDINDNATKFQAENLDV | 3.41

Variant | protein stability index
FGIEIEVTDINDNAIKFQAENLDV | 2.25
FGIEIEVTDINDNAQKFQAENLDV | 3.11
FGIEIEVTDINDNAFKFQAENLDV | 1.84
FGIEIEVTDINDNAYKFQAENLDV | 2.23
FGIEIEVTDINDNAPKTQAENLDV | 4.14
FGIEIEVTDINDNAPKHQAENLDV | 4.28
FGIEIEVTDINDNAPKNQAENLDV | 4.15
FGIEIEVTDINDNAPKQQAENLDV | 4.14
FGIEIEVTDINDNAPKDQAENLDV | 4.36
FGIEIEVTDINDNAPKWQAENLDV | 2.52
FGIEIEVTDINDNAPKMQAENLDV | 3.58
FGIEIEVTDINDNAPKSQAENLDV | 3.98
FGIEIEVTDINDNAPKYQAENLDV | 3.18
FGIEIEVTDINDNAPKCQAENLDV | 3.73
FGIEIEVTDINDNAPKLQAENLDV | 3.33
FGIEIEVTDINDNAPKRQAENLDV | 3.9
FGIEIEVTDINDNAPKIQAENLDV | 3.37
FGIEIEVTDINDNAPKGQAENLDV | 3.94
FGIEIEVTDINDNAPKAQAENLDV | 4.12
FGIEIEVTDINDNAPKVQAENLDV | 3.65
FGIEIEVTDINDNAPKKQAENLDV | 4.42
FGIEIEVTDINDNAPKPQAENLDV | 4.03
FGIEIEVTDINDNAPKEQAENLDV | 4.81
FGIEIEVTDINDNAPKFRAENLDV | 2.08

Variant | protein stability index
FGIEIEVTDINDNAPKFGAENLDV | 2.94
FGIEIEVTDINDNAPKFCAENLDV | 2.44
FGIEIEVTDINDNAPKFMAENLDV | 2.13
FGIEIEVTDINDNAPKFDAENLDV | 3.56
FGIEIEVTDINDNAPKFHAENLDV | 2.93
FGIEIEVTDINDNAPKFEAENLDV | 3.33
FGIEIEVTDINDNAPKFLAENLDV | 2.26
FGIEIEVTDINDNAPKFYAENLDV | 1.53
FGIEIEVTDINDNAPKFAAENLDV | 2.88
FGIEIEVTDINDNAPKFSAENLDV | 2.1
FGIEIEVTDINDNAPKFFAENLDV | 1.68
FGIEIEVTDINDNAPKFNAENLDV | 3.25
FGIEIEVTDINDNAPKFIAENLDV | 2.13
FGIEIEVTDINDNAPKFTAENLDV | 2.77
FGIEIEVTDINDNAPKFKAENLDV | 3
FGIEIEVTDINDNAPKFPAENLDV | 2.41
FGIEIEVTDINDNAPKFVAENLDV | 2.54
FGIEIEVTDINDNAPKFWAENLDV | 1.93
FGIEIEVTDINDNAPKFQARNLDV | 1.83
FGIEIEVTDINDNAPKFQAKNLDV | 2.08
FGIEIEVTDINDNAPKFQAYNLDV | 2.59
FGIEIEVTDINDNAPKFQAINLDV | 2.72
FGIEIEVTDINDNAPKFQASNLDV | 2.71
FGIEIEVTDINDNAPKFQATNLDV | 2.34

Variant | protein stability index
FGIEIEVTDINDNAPKFQAGNLDV | 2.11
FGIEIEVTDINDNAPKFQACNLDV | 1.61
FGIEIEVTDINDNAPKFQAVNLDV | 1.91
FGIEIEVTDINDNAPKFQANNLDV | 2.27
FGIEIEVTDINDNAPKFQAWNLDV | 2.11
FGIEIEVTDINDNAPKFQAPNLDV | 2.13
FGIEIEVTDINDNAPKFQAMNLDV | 2.06
FGIEIEVTDINDNAPKFQAHNLDV | 2.02
FGIEIEVTDINDNAPKFQALNLDV | 1.33
FGIEIEVTDINDNAPKFQAFNLDV | 2.51
FGIEIEVTDINDNAPKFQAQNLDV | 2.4
FGIEIEVTDINDNAPKFQADNLDV | 2.82
FGIEIEVTDINDNAPKFQAANLDV | 2.15
FGIEIEVTDINDNVPKFQAENLDV | 3.4
FGIEIEVTDINDNSPKFQAENLDV | 3.13
FGIEIEVTDINDNRPKFQAENLDV | 2.83
FGIEIEVTDINDNKPKFQAENLDV | 3.1
FGIEIEVTDINDNHPKFQAENLDV | 2.79
FGIEIEVTDINDNQPKFQAENLDV | 3.58
FGIEIEVTDINDNLPKFQAENLDV | 1.98
FGIEIEVTDINDNEPKFQAENLDV | 3.83
FGIEIEVTDINDNFPKFQAENLDV | 2.35
FGIEIEVTDINDNMPKFQAENLDV | 2.42
FGIEIEVTDINDNWPKFQAENLDV | 1.67

Variant | protein stability index
FGIEIEVTDINDNTPKFQAENLDV | 2.9
FGIEIEVTDINDNIPKFQAENLDV | 2.49
FGIEIEVTDINDNYPKFQAENLDV | 1.71
FGIEIEVTDINDNNPKFQAENLDV | 3.35
FGIEIEVTDINDNPPKFQAENLDV | 2.69
FGIEIEVTDINDNDPKFQAENLDV | 3.89
FGIEIEVTDINDNGPKFQAENLDV | 3.08
FGIEIEVTDINDNCPKFQAENLDV | 2.46
FGIEIEVTDINDNAPKFQAEDLDV | 3.65
FGIEIEVTDINDNAPKFQAEGLDV | 2.83
FGIEIEVTDINDNAPKFQAEILDV | 1.84
FGIEIEVTDINDNAPKFQAEELDV | 3.46
FGIEIEVTDINDNAPKFQAEFLDV | 1.84
FGIEIEVTDINDNAPKFQAEHLDV | 2.82
FGIEIEVTDINDNAPKFQAECLDV | 2.47
FGIEIEVTDINDNAPKFQAEALDV | 2.49
FGIEIEVTDISDNAPKFQAENLDV | 2.84
FGIEIEVTDIMDNAPKFQAENLDV | 2.15
FGIEIEVTDIWDNAPKFQAENLDV | 1.96
FGIEIEVTDIVDNAPKFQAENLDV | 2.3
FGIEIEVTDIRDNAPKFQAENLDV | 2.73
FGIEIEVTDITDNAPKFQAENLDV | 2.26
FGIEIEVTDIYDNAPKFQAENLDV | 1.76
FGIEIEVTDIPDNAPKFQAENLDV | 2.73

Variant | protein stability index
FGIEIEVTDIQDNAPKFQAENLDV | 2.52
FGIEIEVTDINDTAPKFQAENLDV | 3.1
FGIEIEVTDINDAAPKFQAENLDV | 2.85
FGIEIEVTDINDVAPKFQAENLDV | 2.27
FGIEIEVTDINDKAPKFQAENLDV | 3.12
FGIEIEVTDINDRAPKFQAENLDV | 2.67
FGIEIEVTDINDHAPKFQAENLDV | 2.36
FGIEIEVTDINDIAPKFQAENLDV | 2.66
FGIEIEVTDINDMAPKFQAENLDV | 2.08
FGIEIEVTDINDWAPKFQAENLDV | 1.54
FGIEIEVTDINDQAPKFQAENLDV | 3.21
FGIEIEVTDINDPAPKFQAENLDV | 2.83
FGIEIEVTDINDEAPKFQAENLDV | 3.35
FGIEIEVTDINDDAPKFQAENLDV | 3.43
FGIEIEVTDINDLAPKFQAENLDV | 1.91
FGIEIEVTDINDFAPKFQAENLDV | 1.84
FGIEIEVTDINDCAPKFQAENLDV | 2.52
FGIEIEVTDINDGAPKFQAENLDV | 2.99
FGIEIEVTDINDYAPKFQAENLDV | 1.78
FGIEIEVTDINDSAPKFQAENLDV | 2.48
